In this experiment the target is PD-1 (human). The experiment in a line: cell-based or functional assay.

Sequence of Full length ECD of PD-L2 (ligand) (Q9BQ51 20-220): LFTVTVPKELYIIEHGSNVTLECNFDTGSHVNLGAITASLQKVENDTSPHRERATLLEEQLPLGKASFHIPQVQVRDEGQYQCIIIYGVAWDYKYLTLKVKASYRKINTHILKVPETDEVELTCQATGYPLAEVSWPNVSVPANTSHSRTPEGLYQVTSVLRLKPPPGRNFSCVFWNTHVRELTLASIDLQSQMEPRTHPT

As for Full length ECD of PD-L2 (ligand), the IFN gamma levels pg/mL, MLR was determined as 1170 pg/mL. Take PD-L2 IgV-Fc E44D (Fc fusion): the Fold increase over wildtype PD-L2 IgV-Fc, MLR IFN gamma was found to be 1.09 fold and the IFN gamma levels pg/mL, MLR worked out at 1500 pg/mL. On to “PD-L2 IgV-Fc E44D, S67L, Q72H, Q82R, V89D (Fc fusion)”, for which the Fold increase over wildtype PD-L2 IgV-Fc, MLR IFN gamma was 0.93 fold and the IFN gamma levels pg/mL, MLR was found to be 1280 pg/mL.

Regarding “PD-L2 IgV-Fc E44D, V89D, W91R (Fc fusion)”, the Fold increase over wildtype PD-L2 IgV-Fc, MLR IFN gamma stood at 1.13 fold and the IFN gamma levels pg/mL, MLR came out at 1560 pg/mL. As to PD-L2 IgV-Fc E59G, Q82R (Fc fusion), the Fold increase over wildtype PD-L2 IgV-Fc, MLR IFN gamma amounted to 1.1 fold and the IFN gamma levels pg/mL, MLR is 1510 pg/mL.

Turning to “PD-L2 IgV-Fc F2L, H15Q, D46E, T47A, Q72H, R76G, Q82R, V89D (Fc fusion)”, the Fold increase over wildtype PD-L2 IgV-Fc, MLR IFN gamma was 0.85 fold and the IFN gamma levels pg/mL, MLR was 1170 pg/mL. On the same counts, the results for “PD-L2 IgV-Fc G28V, Q72H, R76G, I86T (Fc fusion)” are 1.29 fold and 1780 pg/mL.

With “PD-L2 IgV-Fc H15Q, C23S, I86T (Fc fusion)”, the Fold increase over wildtype PD-L2 IgV-Fc, MLR IFN gamma was found to be 1.34 fold and the IFN gamma levels pg/mL, MLR is 1850 pg/mL. In turn, “PD-L2 IgV-Fc H15Q, E44D, R76G, I85F (Fc fusion)” gave a Fold increase over wildtype PD-L2 IgV-Fc, MLR IFN gamma of 1.01 fold and an IFN gamma levels pg/mL, MLR of 1390 pg/mL. In turn, PD-L2 IgV-Fc H15Q, K65R (Fc fusion) gave a Fold increase over wildtype PD-L2 IgV-Fc, MLR IFN gamma of 1.1 fold and an IFN gamma levels pg/mL, MLR of 1510 pg/mL. In the case of “PD-L2 IgV-Fc H15Q, L33H, S67L, R76G, Q82R, V89D (Fc fusion)”, the Fold increase over wildtype PD-L2 IgV-Fc, MLR IFN gamma worked out at 1.09 fold and the IFN gamma levels pg/mL, MLR amounted to 1500 pg/mL. “PD-L2 IgV-Fc H15Q, L33P, T47A, S67L, P71S, V89D (Fc fusion)” displayed a Fold increase over wildtype PD-L2 IgV-Fc, MLR IFN gamma of 0.94 fold and an IFN gamma levels pg/mL, MLR of 1290 pg/mL. In the case of “PD-L2 IgV-Fc H15Q, N18D, T47A, Q72H, V73A, R76G, I86T, V89D (Fc fusion)”, the Fold increase over wildtype PD-L2 IgV-Fc, MLR IFN gamma was found to be 0.77 fold and the IFN gamma levels pg/mL, MLR was determined as 1070 pg/mL. “PD-L2 IgV-Fc H15Q, N24S, T47A, Q72H, R76G, V89D (Fc fusion)” displayed a Fold increase over wildtype PD-L2 IgV-Fc, MLR IFN gamma of 0.79 fold and an IFN gamma levels pg/mL, MLR of 1090 pg/mL.

“PD-L2 IgV-Fc H15Q, N32D, S67L, V89D (Fc fusion)” displayed a Fold increase over wildtype PD-L2 IgV-Fc, MLR IFN gamma of 0.93 fold and an IFN gamma levels pg/mL, MLR of 1290 pg/mL. On the same counts, the results for “PD-L2 IgV-Fc H15Q, Q72H, Q74R, R76G, I86T (Fc fusion)” are 0.68 fold and 934 pg/mL. Take “PD-L2 IgV-Fc H15Q, Q72H, V89D (Fc fusion)”: the Fold increase over wildtype PD-L2 IgV-Fc, MLR IFN gamma stood at 0.92 fold and the IFN gamma levels pg/mL, MLR amounted to 1270 pg/mL. Substance “PD-L2 IgV-Fc H15Q, Q82R, V89D (Fc fusion)” came in with a Fold increase over wildtype PD-L2 IgV-Fc, MLR IFN gamma of 0.79 fold and an IFN gamma levels pg/mL, MLR of 1080 pg/mL. “PD-L2 IgV-Fc H15Q, R76G, I85F (SEQ ID NO 1500) (Fc fusion)” registered a Fold increase over wildtype PD-L2 IgV-Fc, MLR IFN gamma of 1.25 fold and an IFN gamma levels pg/mL, MLR of 1730 pg/mL.

“PD-L2 IgV-Fc H15Q, R76G, I85F (SEQ ID NO 1505) (Fc fusion)”: the Fold increase over wildtype PD-L2 IgV-Fc, MLR IFN gamma is 1.04 fold and the IFN gamma levels pg/mL, MLR was 1440 pg/mL.

Consider “PD-L2 IgV-Fc H15Q, S39I, E44D, Q72H, V75G, R76G, Q82R, V89D (Fc fusion)”, for which the Fold increase over wildtype PD-L2 IgV-Fc, MLR IFN gamma amounted to 0.68 fold and the IFN gamma levels pg/mL, MLR stood at 941 pg/mL.

For the substance “PD-L2 IgV-Fc H15Q, S39I, I86T (Fc fusion)”, the Fold increase over wildtype PD-L2 IgV-Fc, MLR IFN gamma is 1.03 fold and the IFN gamma levels pg/mL, MLR turned out to be 1420 pg/mL.

With “PD-L2 IgV-Fc H15Q, S39I, S67L, V89D (Fc fusion)”, the Fold increase over wildtype PD-L2 IgV-Fc, MLR IFN gamma stood at 0.89 fold and the IFN gamma levels pg/mL, MLR was 1230 pg/mL. On to “PD-L2 IgV-Fc H15Q, S67L, I86T (Fc fusion)”, for which the Fold increase over wildtype PD-L2 IgV-Fc, MLR IFN gamma is 0.75 fold and the IFN gamma levels pg/mL, MLR was found to be 1030 pg/mL. On the same counts, the results for “PD-L2 IgV-Fc H15Q, S67L, Q72H, R76G, V89D (Fc fusion)” are 0.77 fold and 1060 pg/mL. As to “PD-L2 IgV-Fc H15Q, S67L, R76G (Fc fusion)”, the Fold increase over wildtype PD-L2 IgV-Fc, MLR IFN gamma was determined as 1.04 fold and the IFN gamma levels pg/mL, MLR amounted to 1430 pg/mL. On the same counts, the results for “PD-L2 IgV-Fc H15Q, S67L, R76G, I85F (Fc fusion)” are 0.96 fold and 1320 pg/mL. Substance PD-L2 IgV-Fc H15Q, T47A (Fc fusion) came in with a Fold increase over wildtype PD-L2 IgV-Fc, MLR IFN gamma of 1.19 fold and an IFN gamma levels pg/mL, MLR of 1640 pg/mL. “PD-L2 IgV-Fc H15Q, T47A, H69L, Q82R, V89D (Fc fusion)” yielded a Fold increase over wildtype PD-L2 IgV-Fc, MLR IFN gamma of 1.26 fold and an IFN gamma levels pg/mL, MLR of 1730 pg/mL. In the case of “PD-L2 IgV-Fc H15Q, T47A, K65R, S67L, Q82R, V89D (Fc fusion)”, the Fold increase over wildtype PD-L2 IgV-Fc, MLR IFN gamma worked out at 0.97 fold and the IFN gamma levels pg/mL, MLR worked out at 1340 pg/mL. “PD-L2 IgV-Fc H15Q, T47A, Q72H, R76G (Fc fusion)” yielded a Fold increase over wildtype PD-L2 IgV-Fc, MLR IFN gamma of 1.06 fold and an IFN gamma levels pg/mL, MLR of 1460 pg/mL.

In turn, “PD-L2 IgV-Fc H15Q, T47A, Q72H, R76G, I86T (Fc fusion)” displayed a Fold increase over wildtype PD-L2 IgV-Fc, MLR IFN gamma of 1.16 fold and an IFN gamma levels pg/mL, MLR of 1600 pg/mL.

In turn, “PD-L2 IgV-Fc H15Q, T47A, Q82R (Fc fusion)” displayed a Fold increase over wildtype PD-L2 IgV-Fc, MLR IFN gamma of 0.96 fold and an IFN gamma levels pg/mL, MLR of 1320 pg/mL. On the same counts, the results for “PD-L2 IgV-Fc H15Q, T47A, S67L, Q82R, V89D (Fc fusion)” are 0.87 fold and 1200 pg/mL.

The substance “PD-L2 IgV-Fc H15Q, T47A, S67L, R76G, Q82R, V89D (Fc fusion)” showed a Fold increase over wildtype PD-L2 IgV-Fc, MLR IFN gamma of 0.8 fold and an IFN gamma levels pg/mL, MLR of 1100 pg/mL. On the same counts, the results for “PD-L2 IgV-Fc H15Q, V31M, S67L, Q82R, V89D (Fc fusion)” are 0.88 fold and 1210 pg/mL. In turn, PD-L2 IgV-Fc H15Q, V89D (Fc fusion) displayed a Fold increase over wildtype PD-L2 IgV-Fc, MLR IFN gamma of 1.09 fold and an IFN gamma levels pg/mL, MLR of 1500 pg/mL. In turn, “PD-L2 IgV-Fc I12V, I13V, H15Q, T47A, Q82R, V89D (Fc fusion)” came in with a Fold increase over wildtype PD-L2 IgV-Fc, MLR IFN gamma of 1.11 fold and an IFN gamma levels pg/mL, MLR of 1530 pg/mL. “PD-L2 IgV-Fc I13V, E44D, Q82R, V89D (Fc fusion)” registered a Fold increase over wildtype PD-L2 IgV-Fc, MLR IFN gamma of 0.73 fold and an IFN gamma levels pg/mL, MLR of 1010 pg/mL. On the same counts, the results for “PD-L2 IgV-Fc I13V, H15Q, E44D, V89D (Fc fusion)” are 1.01 fold and 1380 pg/mL. “PD-L2 IgV-Fc I13V, H15Q, E44V, T47A, Q82R, V89D (Fc fusion)” had a Fold increase over wildtype PD-L2 IgV-Fc, MLR IFN gamma of 0.92 fold and an IFN gamma levels pg/mL, MLR of 1270 pg/mL.

The record behind these values is US20200040059A1.
